Test results taken from patent publication US20250002610A1 (Genmab, published 2025).
Residue numbers refer to the chain shown, from its start.

Tests used:
[1] = molecular target: T1, cynomolgus monkey DR4 with death domain deletion on ExpiCHO-S cells (cynomolgus monkey (Macaca fascicularis)); assay: flow cytometry on ExpiCHO-S cells transiently expressing cynomolgus monkey DR4 (death domain deleted), gMFI PE
T1 construct: also called cynomolgus DR4
T1 chain: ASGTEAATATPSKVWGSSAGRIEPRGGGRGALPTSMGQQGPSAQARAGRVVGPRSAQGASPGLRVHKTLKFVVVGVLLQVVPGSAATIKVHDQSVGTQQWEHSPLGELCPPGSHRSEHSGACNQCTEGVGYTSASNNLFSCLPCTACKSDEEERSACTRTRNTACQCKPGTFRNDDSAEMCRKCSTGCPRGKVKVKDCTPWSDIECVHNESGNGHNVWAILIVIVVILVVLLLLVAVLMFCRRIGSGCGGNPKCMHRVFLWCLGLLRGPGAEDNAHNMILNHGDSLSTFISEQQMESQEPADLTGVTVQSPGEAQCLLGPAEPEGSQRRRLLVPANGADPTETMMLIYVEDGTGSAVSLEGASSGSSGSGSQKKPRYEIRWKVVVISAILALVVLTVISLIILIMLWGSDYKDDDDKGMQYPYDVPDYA

[2] = molecular target: T2, human FAPα (Fibroblast activation protein alpha), cell surface expressed (human, UniProt Q12884 1-760); assay: flow cytometry, human lung fibroblasts, n = 2
T2 construct: Endogenous on human lung fibroblasts and CAFs
T2 sequence: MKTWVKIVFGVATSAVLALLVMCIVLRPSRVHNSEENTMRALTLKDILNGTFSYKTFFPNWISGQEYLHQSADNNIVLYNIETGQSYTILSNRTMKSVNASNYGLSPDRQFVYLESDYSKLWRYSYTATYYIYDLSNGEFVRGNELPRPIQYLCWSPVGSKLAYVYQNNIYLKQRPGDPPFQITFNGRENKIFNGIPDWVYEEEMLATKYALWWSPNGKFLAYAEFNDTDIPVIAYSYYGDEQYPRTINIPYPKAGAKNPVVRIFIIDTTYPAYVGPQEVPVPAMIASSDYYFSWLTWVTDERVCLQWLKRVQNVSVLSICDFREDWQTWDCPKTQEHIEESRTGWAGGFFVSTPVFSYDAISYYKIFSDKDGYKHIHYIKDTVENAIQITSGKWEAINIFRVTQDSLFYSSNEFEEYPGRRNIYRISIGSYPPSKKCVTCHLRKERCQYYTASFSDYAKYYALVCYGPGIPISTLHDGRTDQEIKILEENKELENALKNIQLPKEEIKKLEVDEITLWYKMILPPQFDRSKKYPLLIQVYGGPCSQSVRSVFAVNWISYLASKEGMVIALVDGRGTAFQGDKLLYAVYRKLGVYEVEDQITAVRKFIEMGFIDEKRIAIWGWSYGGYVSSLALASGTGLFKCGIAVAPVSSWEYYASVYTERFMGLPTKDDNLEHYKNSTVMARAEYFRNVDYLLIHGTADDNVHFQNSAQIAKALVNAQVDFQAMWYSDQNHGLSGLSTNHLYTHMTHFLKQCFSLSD
Method: Human lung fibroblasts and CAFs (50,000 cells/well) were seeded in 96-Well round bottom plates (Greiner Bio-one, Cat #650101). Antibody dilutions were prepared using fluorescence-activated cell sorting (FACS) buffer, consisting of phosphate buffer saline (PBS, Lonza, Cat #BE17-517Q)+1% Bovine Serum Albumin (BSA, Roche, Cat #10735086001)+0.02% Sodium Azide (Bio-World, Cat #41920044-3). Plates were centrifuged, supernatant was removed, cells were resuspended in 50 μL of human Fc Block (BD, Cat #564220, diluted 1:100 in FACS buffer) and 50 μL of viability stain TO-PRO-3 Iodide (Thermo Fisher, Cat #T3605, diluted 1: 25,000 in FACS buffer), and incubated for 15 min at 4° C. Plates were washed three times with FACS buffer. Plates were centrifuged, supernatant was removed, cells were resuspended in 50 μL of antibody dilutions (concentration range 90-0.0005 μg/mL, three-fold dilution steps using FACS buffer) of BisG1-FAPα-FERL/DR4-FERR, BisG1-FAPα-FERL/b12-FERR, BisG1-b12-FERL/b12-FERR (top six concentrations only for CAFs culture) or IgG1-FAPα-FERL (top four concentrations only for CAFs culture) and incubated for 30 min at 4° C. Cells were washed three times with FACS buffer and resuspended in 50 μL of Fluorescein isothiocyanate (FITC)-labeled polyclonal antibody goat anti-mouse IgG1 (Jackson Immuno Research, Cat #109-096-097, diluted 1:100 in FACS buffer). […] Antibody binding to viable cells (TO-PRO-3 negative) was analyzed by flow cytometry on a FACSCelesta™ (BD biosciences) and data were processed using FlowJo_v10.8.1 (FlowJo LLC). Geomean fluorescence intensity, gMFI, was determined and visualized using GraphPad Prism. Binding curves were analyzed using nonlinear regression analysis. […]
Binding of FAPα-targeting monoclonal antibody clones, IgG1-FAPα-FEAL and IgG1-FAP5-FEAL, and bispecific antibodies carrying a binding arm derived from the two FAPα-binding clones (BisG1-FAPα-FEAL/b12-FEAR and BisG1-FAP5-FEAL/b12-FEAR) to human lung fibroblasts, which endogenously express FAPα, was compared and analyzed by flow cytometry.

B1: BisG1-FAPα-FERL/DR4-FERR (bispecific antibody, human IgG1, kappa, lambda)
heavy 1: EVQLLESGGGLVQPGGSPRLSCEASGFTFSSYALSWVRQAPGKGLEWVSAISGSGGGRYYADSVKGRFTISRDNSKNTLFLQMNSLRAEDTAVYYCAKEGYSSSGTYWDHWGQGTLVTVSSASTKGPSVFPLAPSSKSTSGGTAALGCLVKDYFPEPVTVSWNSGALTSGVHTFPAVLQSSGLYSLSSVVTVPSSSLGTQTYICNVNHKPSNTKVDKRVEPKSCDKTHTCPPCPAPEFERGPSVFLFPPKPKDTLMISRTPEVTCVVVDVSHEDPEVKFNWYVDGVEVHNAKTKPREEQYNSTYRVVSVLTVLHQDWLNGKEYKCKVSNKALPAPIEKTISKAKGQPREPQVYTLPPSREEMTKNQVSLTCLVKGFYPSDIAVEWESNGQPENNYKTTPPVLDSDGSFLLYSKLTVDKSRWQQGNVFSCSVMHEALHNHYTQKSLSLSPG
light 1: AIQMTQSPSSVSASVGDRVTITCRASQGVSSWLAWYQQKPGRAPKLLIYVASTLQSGVPSRFSGSGSGTDFTLTINSLQPEDFATYYCQQANSFPPTFGQGTRLEMKRTVAAPSVFIFPPSDEQLKSGTASVVCLLNNFYPREAKVQWKVDNALQSGNSQESVTEQDSKDSTYSLSSTLTLSKADYEKHKVYACEVTHQGLSSPVTKSFNRGEC
heavy 2: QVQLQESGPGLVKPSGTLSLTCAVSGGSISSYSWWSWIRQPPGKGLEWIGELYHSGSTNYNPSLKSRVTISVDKSKNQFSLKLRSVTAADTAVYYCVRGVATIDYWGQGTLVTVSSASTKGPSVFPLAPSSKSTSGGTAALGCLVKDYFPEPVTVSWNSGALTSGVHTFPAVLQSSGLYSLSSVVTVPSSSLGTQTYICNVNHKPSNTKVDKRVEPKSCDKTHTCPPCPAPEFERGPSVFLFPPKPKDTLMISRTPEVTCVVVDVSHEDPEVKFNWYVDGVEVHNAKTKPREEQYNSTYRVVSVLTVLHQDWLNGKEYKCKVSNKALPAPIEKTISKAKGQPREPQVYTLPPSREEMTKNQVSLTCLVKGFYPSDIAVEWESNGQPENNYKTTPPVLDSDGSFFLYSRLTVDKSRWQQGNVFSCSVMHEALHNHYTQKSLSLSPG
light 2: QSALTQPPSASGSPGQSVTISCTGTSSDVGGYNFVSWYQQDPGKAPKLLIYEVTKRPSGVPDRFSGSKSGNTASLTVSGLQAEDEADYYCSSYAGSNNVMFGGGTKLTVLGQPKAAPSVTLFPPSSEELQANKATLVCLISDFYPGAVTVAWKADSSPVKAGVETTTPSKQSNNKYAASSYLSLTPEQWKSHRSYSCQVTHEGSTVEKTVAPTECS
notes: Human IgG1 bispecific made by controlled Fab-arm exchange of IgG1-FAPα-FERL and IgG1-DR4-FERR; monovalent for FAPα and for DR4; also called GEN1057
- EC50 (read off the curve) [1]: ~1 µg/mL

B2: BisG1-FAPα-FEAL/b12-FEAR (bispecific antibody, human IgG1, kappa)
heavy 1: B1 heavy 1 with R240G, D269A
light 1: B1 light 1
heavy 2: QVQLVQSGAEVKKPGASVKVSCQASGYRFSNFVIHWVRQAPGQRFEWMGWINPYNGNKEFSAKFQDRVTFTADTSANTAYMELRSLRSADTAVYYCARVGPYSWDDSPQDNYYMDVWGKGTTVIVSSASTKGPSVFPLAPSSKSTSGGTAALGCLVKDYFPEPVTVSWNSGALTSGVHTFPAVLQSSGLYSLSSVVTVPSSSLGTQTYICNVNHKPSNTKVDKRVEPKSCDKTHTCPPCPAPEFEGGPSVFLFPPKPKDTLMISRTPEVTCVVVAVSHEDPEVKFNWYVDGVEVHNAKTKPREEQYNSTYRVVSVLTVLHQDWLNGKEYKCKVSNKALPAPIEKTISKAKGQPREPQVYTLPPSREEMTKNQVSLTCLVKGFYPSDIAVEWESNGQPENNYKTTPPVLDSDGSFFLYSRLTVDKSRWQQGNVFSCSVMHEALHNHYTQKSLSLSPG
light 2: EIVLTQSPGTLSLSPGERATFSCRSSHSIRSRRVAWYQHKPGQAPRLVIHGVSNRASGISDRFSGSGSGTDFTLTITRVEPEDFALYYCQVYGASSYTFGQGTKLERKRTVAAPSVFIFPPSDEQLKSGTASVVCLLNNFYPREAKVQWKVDNALQSGNSQESVTEQDSKDSTYSLSSTLTLSKADYEKHKVYACEVTHQGLSSPVTKSFNRGEC
notes: Fab-arm exchange of IgG1-FAPα-FEAL and IgG1-b12-FEAR
- EC50 [2]: 0.044 µg/mL
